According to article PMC2776994 (2009):

T1: RepD (Staphylococcus aureus, UniProt P03065)
T1 chain: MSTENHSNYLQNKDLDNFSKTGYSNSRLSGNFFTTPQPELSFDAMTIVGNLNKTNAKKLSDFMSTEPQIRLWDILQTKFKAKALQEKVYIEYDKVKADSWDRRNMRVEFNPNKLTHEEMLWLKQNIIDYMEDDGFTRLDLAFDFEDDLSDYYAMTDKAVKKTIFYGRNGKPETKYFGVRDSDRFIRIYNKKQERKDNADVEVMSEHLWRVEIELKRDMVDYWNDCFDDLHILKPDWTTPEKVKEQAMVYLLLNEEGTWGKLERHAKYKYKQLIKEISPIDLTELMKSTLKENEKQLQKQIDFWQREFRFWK

T2: PcrA helicase (UniProt P56255 1-724)
T2 sequence: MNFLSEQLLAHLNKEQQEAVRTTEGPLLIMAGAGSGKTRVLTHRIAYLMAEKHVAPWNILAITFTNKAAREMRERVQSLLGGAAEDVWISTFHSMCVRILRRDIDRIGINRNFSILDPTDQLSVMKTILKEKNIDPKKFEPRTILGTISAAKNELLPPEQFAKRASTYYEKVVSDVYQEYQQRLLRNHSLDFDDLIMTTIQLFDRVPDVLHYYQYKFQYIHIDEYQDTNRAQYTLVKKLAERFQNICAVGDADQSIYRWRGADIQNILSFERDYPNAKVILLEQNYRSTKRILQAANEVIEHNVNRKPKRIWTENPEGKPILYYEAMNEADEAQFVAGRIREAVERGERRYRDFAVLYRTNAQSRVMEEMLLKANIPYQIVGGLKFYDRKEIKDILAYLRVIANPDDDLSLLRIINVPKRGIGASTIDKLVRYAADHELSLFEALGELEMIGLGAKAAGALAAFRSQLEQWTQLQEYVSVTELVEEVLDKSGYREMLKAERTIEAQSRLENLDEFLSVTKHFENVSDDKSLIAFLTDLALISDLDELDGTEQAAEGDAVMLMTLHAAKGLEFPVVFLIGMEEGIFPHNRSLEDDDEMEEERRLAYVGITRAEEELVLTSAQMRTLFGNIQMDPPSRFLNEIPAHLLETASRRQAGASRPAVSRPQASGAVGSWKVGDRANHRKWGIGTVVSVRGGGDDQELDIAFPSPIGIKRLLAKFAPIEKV

B1: PcrA (protein)
chain: T2 sequence
modifications: DNA junction

How the values were obtained:
RepD = molecular target: T1, RepD; assay: fluorescence anisotropy
PcrA helicase = molecular target: T2, PcrA helicase; assay: not stated in material

| Binder | Kd (RepD) [nM] | Kd (PcrA helicase) [nM] |
| --- | --- | --- |
| B1 | 22 | – |
| TTTTTTTTTT (ssDNA) [dT10] | – | 240 |
